The text below walks through data of paper PMC8605244 (The Journal of Biological Chemistry, 2021).

Changes are numbered by the printed parent chain.

Test [1] has as its target T1, H-Ras, biotinylated, loaded with a nonhydrolyzable GTP analog (Ras-GTP) or with GDP (Ras-GDP) (UniProt P01112 1-189, biotin on the AVI-tag (attached in vivo by BirA)).
T1 construct: H-Ras; One construct used in two nucleotide states; also called biotinylated-Ras; not shown: His tag, N-terminal, cleaved; AVI-tag, C-terminal, kept
The test is described as follows: SPR; OpenSPR, streptavidin chip; biotinylated Ras in the GDP-bound state immobilised at 50 ug/ml; RASSF5 variants injected at 1.25-20 uM; Ras buffer (Tris 20 mM, NaCl 100 mM, MgCl2 5 mM, pH 7.5) with 0.1% Tween20 and 0.5% BSA; 30 ul/min. Conditions: both partners purified. On the technique in general: SPR reads the build-up and loss of mass on a sensor chip optically.

For test [2], the target named is T1, H-Ras, biotinylated, loaded with a …. The test is described as follows: SPR; OpenSPR, streptavidin chip; biotinylated Ras in the GTP-bound state (nonhydrolyzable analog) immobilised at 50 ug/ml; RASSF5 variants injected at 1.25-20 uM; Ras buffer (Tris 20 mM, NaCl 100 mM, MgCl2 5 mM, pH 7.5) with 0.1% Tween20 and 0.5% BSA; 30 ul/min. Conditions: both partners purified.

T1 sequence (P01112 whole entry): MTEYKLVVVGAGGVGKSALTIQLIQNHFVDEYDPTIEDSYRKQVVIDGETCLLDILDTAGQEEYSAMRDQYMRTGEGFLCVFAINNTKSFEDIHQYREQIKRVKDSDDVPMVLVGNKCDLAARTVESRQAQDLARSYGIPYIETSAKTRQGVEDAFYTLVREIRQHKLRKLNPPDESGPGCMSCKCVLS

B1: RASSF5 RA domain mutant D2 (RTRHWKR) (designed binder)
chain: EIKQKIDSYNSRERTRHGMKLSEDGTYTGWIKVHLKLRRPVTVPAGIRPQSIYDAIKEVNPAATTDKRTSFYLPLDAIKQLKISSTTTVSEVIQGLLKKFRVVDNPQKFALFKRIHKDGQVLFQKLSIADYPLYLRLLAGPDTDVLSFVLKENETGEV
notes: RASSF5 (NORE1A) RA domain, residues 205-362, with RTRHWKR at positions 218, 219, 220, 221, 234, 286, 305 (WT: KHCLFHM); The numbers follow PDB 3DDC; Selected by yeast surface display against Ras-GDP; source: E. coli BL21(DE3), pET28a, purified (Ni beads, Superdex75 SEC)
A word on the Kd: it is the constant that tells how readily two partners part at equilibrium. Low values mean higher affinity, high ones lower affinity. On to B1, for which, in test [1], the affinity, expressed as Kd, was 1600 ± 300 nM.

B2: RASSF5 RA domain mutant T2 (YRRLYKR) (designed binder)
chain: B1 chain with R14Y, T15R, H17L, W30Y
notes: RASSF5 (NORE1A) RA domain, residues 205-362, with YRRLYKR at positions 218, 219, 220, 221, 234, 286, 305 (WT: KHCLFHM); The numbers follow PDB 3DDC; Selected by yeast surface display against Ras-GTP; source: E. coli BL21(DE3), pET28a, purified (Ni beads, Superdex75 SEC)
In test [1], B2 returned a Kd of 3000 ± 500 nM. Compared with the last molecule, the Kd is about 1.9-fold higher.

B3: RASSF5 RA domain mutant T3 (WSRLYKR) (designed binder)
chain: B1 chain with R14W, T15S, H17L, W30Y
notes: RASSF5 (NORE1A) RA domain, residues 205-362, with WSRLYKR at positions 218, 219, 220, 221, 234, 286, 305 (WT: KHCLFHM); The numbers follow PDB 3DDC; Selected by yeast surface display against Ras-GTP; source: E. coli BL21(DE3), pET28a, purified (Ni beads, Superdex75 SEC)
With B3, the values for the Kd in test [2] and in test [1] were 1000 ± 150 nM and 1600 ± 300 nM, respectively.

B4: RASSF5 RA domain mutant D3 (FRKFWHK) (designed binder)
chain: B1 chain with R14F, T15R, R16K, H17F, K82H, R101K
notes: RASSF5 (NORE1A) RA domain, residues 205-362, with FRKFWHK at positions 218, 219, 220, 221, 234, 286, 305 (WT: KHCLFHM); The numbers follow PDB 3DDC; Selected by yeast surface display against Ras-GDP; source: E. coli BL21(DE3), pET28a, purified (Ni beads, Superdex75 SEC)
Molecule B4 came in with a Kd in test [1] of 1600 ± 200 nM.
